Seven sequences from the supplement of paper PMC12455559 can be followed below.

± gives the standard deviation of the averaged measurements.

Data set [1] is described as follows: melting temperature (DSF); higher = more thermostable. In a few lines: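 After expression in E. coli C41(DE3), the candidate enzymes were bound to nickel beads and released with SUMO protease. Their melting temperature was found by differential scanning fluorimetry with Sypro Orange on a Bio-Rad CFX96. Each sealed PCR plate well held 45 μL enzyme (0 to 0.3 mg/mL) plus 5 μL 5X dye, and fluorescence was read for 250 cycles from 25 °C at 0.3 °C per cycle (ramp 0.3 °C/s).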

Data set [2] is described as follows: purified protein yield per well (BCA); higher = higher soluble expression. In a few lines: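 On an OT-2 robot, lysed cells were processed by binding protein to Ni-charged magnetic beads and releasing it with SUMO protease. Expression took place in E. coli C41(DE3), in 2 mL autoinduction cultures with 100 µg/mL kanamycin, for 2 h at 37 °C followed by 40 h at 18 °C. The Pierce Rapid Gold BCA kit was used to quantify purified protein yield in each well, with values under 25 ug (0.1 mg/mL) below the detection threshold.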

The nature of data set [3]: PET hydrolysis, aromatic products released after 48 h (umol product/mg enzyme); higher = more PET depolymerization activity. In a few lines:
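Sealed plates containing 3.5 mg PET (amorphous film or crystalline powder), 450 μL buffer and 5 μg (50 μL) tagless candidate enzyme were held 48 h at 40 or 60 °C with no shaking. Supernatants were then read at 260 and 280 nm against buffer blanks. The aromatic product detected this way, per mg enzyme, defines PET hydrolysis activity.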

The mark [4] stands for this setting: substrate: aFilm, 40 °C, pH 5.5.
Setting [5] is: substrate: aFilm, 40 °C, pH 6.5.
Where [6] appears, read: substrate: aFilm, 40 °C, pH 7.5.
The mark [7] stands for this setting: substrate: aFilm, 40 °C, pH 8.5.
Setting [8] is: substrate: aFilm, 60 °C, pH 5.5.
Setting [9] is: substrate: aFilm, 60 °C, pH 6.5.
Setting [10] is: substrate: aFilm, 60 °C, pH 7.5.
[11] abbreviates: substrate: aFilm, 60 °C, pH 8.5.
Where [12] appears, read: substrate: cryPow, 40 °C, pH 5.5.
Setting [13] is: substrate: cryPow, 40 °C, pH 6.5.
[14] abbreviates: substrate: cryPow, 40 °C, pH 7.5.
Setting [15] is: substrate: cryPow, 40 °C, pH 8.5.
Where [16] appears, read: substrate: cryPow, 60 °C, pH 5.5.
Where [17] appears, read: substrate: cryPow, 60 °C, pH 6.5.
Where [18] appears, read: substrate: cryPow, 60 °C, pH 7.5.
The mark [19] stands for this setting: substrate: cryPow, 60 °C, pH 8.5.
Where [20] appears, read: substrate: cryPow, 40 °C, pH 4.5.
[21] abbreviates: substrate: cryPow, 60 °C, pH 4.5.

“AGFERGPDPSTSTLDAARGPFAVAEERVYSWRASGFGGGDIYYPTTTSEGTFGVVAVAPGYTAGRSSMAWLASRIASHGFVVINIDTLTRSDQPASRGRQLLAALDHVTSSSGVRDRVDASRQAVVGHSMGGGGALEAASSRPALQAAVPLTPWNLTKRWSSLQVPTFIVGAENDSVASVRTHAEPFYESLPAALPKAYLELNNASHFAPNTTNSTIGRYTVAWLKRYVDDDLRYSQFLCPPPPPSSAIEEFRATC [DP087]” had a melting temperature in data set [1] of 44.2 C. The “purified protein yield per well” value in data set [2] came out at 208 µg. Also, the PET hydrolysis in data set [3] (setting [4]), in data set [3] (setting [5]), in data set [3] (setting [6]), in data set [3] (setting [7]), in data set [3] (setting [8]) and in data set [3] (setting [9]) was under 3 in each case. Also, the PET hydrolysis in data set [3] (setting [10]), in data set [3] (setting [11]), in data set [3] (setting [12]), in data set [3] (setting [13]), in data set [3] (setting [14]) and in data set [3] (setting [15]) was under 3 in each case. The PET hydrolysis in data set [3] (setting [16]), in data set [3] (setting [17]), in data set [3] (setting [18]) and in data set [3] (setting [19]) was under 3 throughout.

In data set [1], “AGNPYERGPSPTAASIAADRGPFATAQVTVPRGNGFGGGVIYYPTDTSQGTFGAIAIAPGFNTAWSYYAWQGPRLASFGFVVIGIETNTLNDYADARATQLLAALDYLVNSSPVRDRVDRDRLAVGGHSMGGGGALLAATQRPSLLTAVGQAPYVPNGNLSGIKSPTIIFAGQADGTVTPQYAQNAYNTIPADVERAYVEIANEGHGFPAGGGGGNSGAFARTMMVWLKLFIDKDTRYAPFLCPTLSNANGISKYMASCPLDPPGGGPTASPTASPTATPSSTPTGPPPATSALKGVASGRCLDVNGASQANGAQAQIWDCNGQNNQQWTTTSAGELRVYGNKCLDVNGGSTADGTSVIIWDCNGQNNQKWRLNSDGTITAVGANKCLDVSGAGTANGTKTQIWTCHGGTNQKWTRV [DP092]” returned a melting temperature of 68.5 C. Also, in data set [2], the “purified protein yield per well” value turned out to be 197 µg. The PET hydrolysis in data set [3] (setting [4]), in data set [3] (setting [5]), in data set [3] (setting [6]), in data set [3] (setting [7]), in data set [3] (setting [8]) and in data set [3] (setting [9]) was under 3 each time. The PET hydrolysis in data set [3] (setting [10]) is under 3; in data set [3] (setting [11]) it was under 3; in data set [3] (setting [12]) it was 7 ± 1.4; in data set [3] (setting [13]) it was 13.5 ± 3.5; in data set [3] (setting [14]), 15; in data set [3] (setting [15]) it was 18.5 ± 2.1. Moreover, the PET hydrolysis in data set [3] (setting [16]), in data set [3] (setting [17]), in data set [3] (setting [18]) and in data set [3] (setting [19]) was under 3 throughout.

In data set [1], “AGNPYQRGPDPTLASVAASRGTFATAQVSVPAGNGFNGGTIYYPTDSSQGTWGAVAIVPGYTALFANEEAWMGPWLASFGFVVIGIETNSRTDFDTARGTQLLAALDYLTQKSPVRDRVDSARLGVIGHSMGGGGVVYATEHRPSLKAAVALAPFSPSQDMSTDHVPTMVMGGQNDTVVTPSYLDGLYATMPASTQSDFVQLAGADHVAYTHPNTTEMRLLIPWLKIFLDDDTRYTQFLCPLMDSTGVSAYHSKCPYVPPGGSTSTPTPTPTITPTPPPSGACSATYRTVNSWSGGYQGEVTVTAGDAAINGWTVRWNLGGGQTVTQVWNGTLSTSGSTATVTNASYNGSLQASASTTFGFLANGTPSTPAITCTSP [TEP114]” registered a melting temperature of 41.8 C. For the same sequence, in data set [2], the “purified protein yield per well” value was found to be 407 µg. In addition, the PET hydrolysis in data set [3] (substrate: aFilm, 40 °C, pH 4.5) was under 3; in data set [3] (setting [4]) it was under 3; in data set [3] (setting [5]), under 3; in data set [3] (setting [6]), under 3; in data set [3] (substrate: aFilm, 60 °C, pH 4.5), under 3; in data set [3] (setting [8]), under 3. Besides, the PET hydrolysis was under 3 in data set [3] (setting [9]); under 3 in data set [3] (setting [10]); 7 in data set [3] (setting [20]); 12.5 ± 0.71 in data set [3] (setting [12]); 24.5 ± 3.5 in data set [3] (setting [13]); under 3 in data set [3] (setting [14]). Besides, the PET hydrolysis in data set [3] (setting [21]) was 6 ± 1.4; in data set [3] (setting [16]), 9 ± 1.4; in data set [3] (setting [17]), 1.5 ± 2.1; in data set [3] (setting [18]), under 3.

Sequence “AGNPYQRGPDPTLASVAASRGTFATAQVSVPPGNGFNGGTIYYPTDTTQGTWGAVAIVPGYTALFANEEAWMGPWLASFGFVVIGIETNSRNDFDTARGTQLLAALDYLTQKSPVRDRVDSARLGVIGHSMGGGGVVYATEHRPSLKAAVALAPFSPSQDMSTDHVPTMVMAGQNDTVVTPSYLDGLYATMPASAQSDFVQLAGADHVAYTHPNTTEMRLLIPWLKIFLDDDTRYTQFLCPLKDSTGVSMYRAKCPYVPPGGPTTSPTPTTTPTPPDGGACSATYRTVNSWSGGYQGEITVTAGGAAIDGWTVRWSLGGGQTVTQVWNGTLSTSGSTASVANASYNGSLQASASTTFGFLANGTPSTPALTCSSP [ESM084]” returned a melting temperature in data set [1] of 43.9 C. Besides, the “purified protein yield per well” value in data set [2] was found to be 119 µg. For the same sequence, the PET hydrolysis in data set [3] (setting [20]) is under 3; in data set [3] (setting [12]), 5; in data set [3] (setting [13]) it was under 3; in data set [3] (setting [14]), under 3; in data set [3] (setting [21]), under 3; in data set [3] (setting [16]), under 3. Moreover, the PET hydrolysis in data set [3] (setting [17]) and in data set [3] (setting [18]) was under 3 in each case.

For “AIEHRRGPAPSEQSVLAANGPFSHSTFAVSDAASAKFGKGTIYYPNDTSQGTFGGVAISPGYTSTEPHIAWLGTRLAAHGFVTITITTNSLYDNPTERGQQLLAALDYLANNAPLAIRQRLDTSRMGVVGHSMGGGGSLYAVWNRPALKAAVPLAPYHTIKNWSGIKTPTMIIGGSADGVAPVEEHSERFYSSMTYARERAYAELEGANHSGSFLFEDHPIIGKFTVAWLKRFIDGDTRYDQFLCPPPTGAYLTEYRASCPHA [DP006]”, the melting temperature in data set [1] was 46.9 C. For the same sequence, the “purified protein yield per well” value in data set [2] came out at 28 µg. Further, the PET hydrolysis in data set [3] (setting [12]) is under 3; in data set [3] (setting [13]) it was under 3; in data set [3] (setting [14]), under 3; in data set [3] (setting [15]), 5.

The sequence “ALNPYQRGPDPTDALLEAPRGPFATASTTVSRLSVSGFGGGVIYYPTDTSQGTFGGIAISPGYTASWSSLDWLGPRIASHGFVVIGIDTLSRYDQPASRGRQLLAALDYLTQRSSVRGRVDASRLAVAGHSMGGGGSLEAADSRPSLQAAVPLAPWHTTKNWSGVRVPTMIIGGESDSVAPVSTHSELFYASIPASSEKAYLELNGASHFFPNTTNTTMAKSMVSWLKRFVDDDVRYDPFLCPGPDGSAVEEYRQTCPLS [TEP140]” returned a melting temperature in data set [1] of 51.4 C. In data set [2], the “purified protein yield per well” value was found to be 36.5 µg. Also, the PET hydrolysis is under 3 in data set [3] (setting [20]), under 3 in data set [3] (setting [12]), under 3 in data set [3] (setting [13]) and 4 in data set [3] (setting [14]).

In data set [1], “ANPYERGPAPTKASIEATTGYFATAKVTVAKSSVSGFGGGTIYYPTSTTSGTFGAIALVPGFTNVQSAVAWLGPRVASQGFVVFIIDTNSVYDSPDSRGTQLLAALDYLTNTSTVKSRVDATRLGVMGYSMGGGGALSATKTRTSIKASVPMAPYHSTKTWTTVKTPTLIVTGQSDTTAPPASHGLAFYNSLSTSIDKAYMELKGAGHSAPTSANTTIAKYSISWFKRFIDDDTRYDQFLCPNPTDTTISSYKSTCNYS [DP082]” returned a melting temperature of 61.9 C. The “purified protein yield per well” value in data set [2] stood at 88 µg. Further, the PET hydrolysis in data set [3] (setting [12]) is 5; in data set [3] (setting [13]) it was 76; in data set [3] (setting [14]), 100; in data set [3] (setting [15]) it was 93; in data set [3] (setting [16]), under 3; in data set [3] (setting [17]), 13. Further, the PET hydrolysis turned out to be 22 in data set [3] (setting [18]) and 32 in data set [3] (setting [19]).
